Experimental data published in the supplement of paper PMC7877785.
± gives the uncertainty stated by the source.

Experiment: self-splicing fitness, log relative to wild type (ln ratio); higher = more splicing; Tetrahymena group I intron in knt gene, E. coli kanamycin selection, DiMSum; sequences stand for … in CUCUCU…GGAGGGAAAAGUUAUCAGGCAUGCACCUGGUAGCUAGUCUUUAAACCAAUAGAUUGCAUCGGUUUAAAAGGCAAGACCGUCAAAUUGCGGGAAAGGGGUCAACAGCCGUUCAGUACCAAGUCUCAGGGGAAACUUUGAGAUGGCCUUGCAAAGGGUAUGGUAAUAAGCUGACGGACAUGGUCCUAACCACGCAGCCAAGUCCUAAGUCAACAGAUCUUCUGUUGAUAUGGAUGCAGUUCACAGACUAAAUGUCGGUCGGGGAAGAUGUAUUCUUCUCAUAAGAUAUAGUCGGACCUCUCCUUAAUGGGAGCUAGCGGAUGAAGUGAUGCAACACUGGAGCCGCUGGGAACUAAUUUGUAUGCGAAAGUAUAUUGAUUAGUUUUGGAGUACUCGUGGUCG
In short: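 A randomised library covering all eight P1ex-region intron nucleotides was built with the intron in the knt kanamycin-resistance gene on pET-22b(+) and held in E. coli BL21(DE3). Cells were grown overnight at 37°C or 30°C on LB agar, with or without 25 μg/mL kanamycin, plus 100 μg/mL carbenicillin, 50 μM IPTG and 0.2% rhamnose, and pooled colonies were amplicon-sequenced on an Illumina HiSeq 2500. DiMSum fitness is the error-weighted combination of wild-type-normalised replicate fold changes, kanamycin versus none.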

Sequence	self-splicing fitness (ln) (30 °C)	self-splicing fitness (ln) (37 °C)
UUGAAGCAAUAUUACGUGCU	-3.06 ± 0.17	-1.97 ± 0.16
UUGAAGCAAUAUUACGUGGU	-3.78 ± 0.25	-2.94 ± 0.34
UUGCAGCAAUAUUACGACAG	-0.32 ± 0.11	0.414 ± 0.15
UUGCAGCAAUAUUACGACCA	-1.8 ± 0.24	-0.0142 ± 0.18
UUGCAGCAAUAUUACGAGGA	-2.08 ± 0.18	-0.954 ± 0.14
UUGCAGCAAUAUUACGAGGG	-2.78 ± 0.15	-0.707 ± 0.15
UUGCAGCAAUAUUACGCAAA	-1.35 ± 0.21	-2.35 ± 0.39
UUGCAGCAAUAUUACGCAGG	-3.72 ± 0.25	-2.68 ± 0.25
UUGCAGCAAUAUUACGCCAA	-1.25 ± 0.19	0.228 ± 0.24
UUGCAGCAAUAUUACGCGAG	-3.18 ± 0.12	-1.73 ± 0.12
UUGCAGCAAUAUUACGGAUG	-2.29 ± 0.085	-1.21 ± 0.1
UUGCAGCAAUAUUACGGAUU	-2.96 ± 0.23	-2.91 ± 0.33
UUGCAGCAAUAUUACGGCCC	-1.83 ± 0.31	-0.271 ± 0.47
UUGCAGCAAUAUUACGGCCG	-1.21 ± 0.096	-0.459 ± 0.12
UUGCAGCAAUAUUACGGGAC	-3.01 ± 0.25	-2.37 ± 0.39
UUGCAGCAAUAUUACGGGCC	-3.8 ± 0.22	-2.3 ± 0.17
UUGCAGCAAUAUUACGUAAU	-2.83 ± 0.098	-2.24 ± 0.14
UUGCAGCAAUAUUACGUCCG	-1.24 ± 0.1	0.0449 ± 0.14
UUGCAGCAAUAUUACGUGUA	-1.52 ± 0.11	-1.07 ± 0.1
UUGCAGCAAUAUUACGUGUG	-2.1 ± 0.087	-1.68 ± 0.12

Sequence	self-splicing fitness (ln) (30 °C)	self-splicing fitness (ln) (37 °C)
UUGGAGCAAUAUUACGAAAC	–	-2.22 ± 0.37
UUGGAGCAAUAUUACGCAAG	-1.51 ± 0.22	-2.65 ± 0.44
UUGGAGCAAUAUUACGCAGU	-1.93 ± 0.34	-2.84 ± 0.48
UUGGAGCAAUAUUACGCUCU	-4.19 ± 0.39	–
UUGGAGCAAUAUUACGCUUA	-2.03 ± 0.16	-2.35 ± 0.23
UUGGAGCAAUAUUACGCUUC	-3.11 ± 0.34	-0.757 ± 0.28
UUGGAGCAAUAUUACGGAGC	-1.47 ± 0.38	–
UUGGAGCAAUAUUACGGCAA	-0.805 ± 0.23	-0.671 ± 0.32
UUGGAGCAAUAUUACGGCAU	–	-1.76 ± 0.24
UUGGAGCAAUAUUACGGGAC	-4 ± 0.48	-0.322 ± 0.34
UUGGAGCAAUAUUACGGUCU	-3.4 ± 0.49	-2.45 ± 0.48
UUGGAGCAAUAUUACGGUGG	-3.06 ± 0.16	-3.08 ± 0.23
UUGGAGCAAUAUUACGGUGU	-3.09 ± 0.32	-1.64 ± 0.32
UUGGAGCAAUAUUACGUCAU	-3.84 ± 0.47	-1.45 ± 0.34
UUGGAGCAAUAUUACGUCCG	-2.22 ± 0.29	-1.27 ± 0.4
UUGGAGCAAUAUUACGUGCA	–	-1.94 ± 0.31
UUGGAGCAAUAUUACGUGGA	-2.9 ± 0.33	-2.24 ± 0.25
UUGGAGCAAUAUUACGUUGU	-4.09 ± 0.36	-1.77 ± 0.26
UUGUAGCAAUAUUACGAAAC	–	-2.66 ± 0.48
UUGUAGCAAUAUUACGAACG	-1.69 ± 0.31	-0.376 ± 0.26
